Results on six molecules are retold here after PMC7878818, “Structural mechanism of bivalent histone H3K4me3K9me3 recognition by the Spindlin1/C11orf84 complex in rRNA transcription activation” (Nature Communications, 2021).

Square brackets hold non-standard residues; d marks the D form. Ends that are not written are not given here. Me3 = trimethyl group on lysine (trimethyl-lysine); Arg(Me2a) = CN(C)C(=N)NCCC[C@H](N)C(=O)O; Lys(Me3) = C[N+](C)(C)CCCC[C@H](N)C(=O)O

Usually Kd stands for the free concentration of one partner at which half of the binding sites on the other are occupied at equilibrium, for simple one-to-one binding. Low values mean tighter binding, high ones weaker binding. A word on the stoichiometry N: it is a count of units in the complex or per binding partner.

Conditions in all cases: both partners purified
Assay [1] addresses T1, Spindlin1 (aa: 50–262)/C11orf84 (aa: 253–295) binary complex (human, UniProt Q9Y657 50-262; Q9BUA3 253-295).
T1 construct: This binary complex was mixed with the H3K4me3K9me3 (A1-G12) peptide for crystallisation; also called Spindlin1/C11orf84
Description: crystal structure; 1:1.5 molar ratio of Spindlin1 (aa 50-262)/C11orf84 (aa 253-295) binary complex and H3K4me3K9me3 (A1-G12) peptide; hanging drop, 291 K; 1.60 Å.

In assay [2] the target is T2, Spindlin1 (aa: 50–262) (human, UniProt Q9Y657 50-262).
T2 construct: The methods describe only co-expression plasmids with C11orf84; also called Spindlin1 alone
T2 sequence (Q9Y657 50-262): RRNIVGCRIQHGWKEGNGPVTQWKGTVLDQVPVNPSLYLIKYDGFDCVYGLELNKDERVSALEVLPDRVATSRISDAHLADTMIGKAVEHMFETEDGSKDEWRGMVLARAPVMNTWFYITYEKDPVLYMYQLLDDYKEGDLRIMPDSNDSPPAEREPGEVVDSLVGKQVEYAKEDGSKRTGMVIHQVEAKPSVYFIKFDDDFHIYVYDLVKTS
The assay is described as above.

The target in the next assay is T3, Spindlin4 (human).
T3 construct: human Spindlin4; Construct, host and purification of the Spindlin4 used for ITC are told nowhere
T3 chain: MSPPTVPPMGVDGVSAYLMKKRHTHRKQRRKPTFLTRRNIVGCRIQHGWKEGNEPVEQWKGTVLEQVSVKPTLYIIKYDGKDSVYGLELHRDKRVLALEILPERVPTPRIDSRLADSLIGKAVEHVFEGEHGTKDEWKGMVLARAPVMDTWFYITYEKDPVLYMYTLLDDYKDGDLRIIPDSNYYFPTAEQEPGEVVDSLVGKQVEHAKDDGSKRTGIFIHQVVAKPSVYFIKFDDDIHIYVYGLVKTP
Description: ITC; 25 °C, MicroCal ITC200; 20 mM HEPES pH 7.5, 150 mM NaCl; 0.8 mM H3 peptide injected into 50 μM protein or complex in the sample cell.

The target of another assay is T4, Spindlin1 (aa: 50-262) (human).
T4 construct: for the ITC of 'Spindlin1' alone the limits are not restated
T4 sequence (chain, as listed by the source): as the sequence (Q9Y657 50-262) above
Described as above.

In assay [3] the target is T2, Spindlin1 (aa: 50–262). Description: anion-exchange chromatography; co-expressed Spindlin1 (aa 50-262) and C11orf84 (aa 219-305); SDS-PAGE of the peak fraction.
Assay [4] addresses T2, Spindlin1 (aa: 50–262). Description: ITC; 25 °C, MicroCal ITC200; 20 mM HEPES pH 7.5, 150 mM NaCl; 50 μM Spindlin1 or Spindlin1/C11orf84 complex in the cell, 0.8 mM peptide injected. (In general: Isothermal titration calorimetry measures the heat released or taken up as one component is titrated into another.)

T1 sequence (Q9Y657 50-262, one chain of several): as the sequence (Q9Y657 50-262) above

B1: H3K4me3K9me3 (A1-G12) peptide (peptide, UniProt P68431 2-13, looked up)
peptide: ARTK(Me3)QTARK(Me3)STG
notes: histone H3 residues A1-G12; This is the peptide of the crystal structure; also called H3K4me3K9me3 peptide; methyl histone peptide
For the molecule B1, the binding result (in assay [1]; in the assay with Spindlin1 (aa: 50–262) [2]) was “binds” in each case.

B2: H3K4me3K9me3 peptide, H3 (1-12) (peptide)
peptide: ARTK(Me3)QTARK(Me3)STG
notes: histone H3 N-terminal tail, residues 1-12; also called H3K4me3K9me3 (A1-G12) peptide
In the case of B2, binding with Spindlin4 was put at a Kd of 41 ± 5 nM. For the same molecule, in the assay with Spindlin1 (aa: 50-262), the “stoichiometry N” value came to 1.04.

B3: C11orf84 (aa: 219–305) (domain or fragment, human, UniProt Q9BUA3 219-305, looked up)
chain: WKEPPGEEPVRKKRGRPMTKNLDPDPEPPSPDSPTETFAAPAEVRHFTDGSFPAGFVLQLFSHTQLRGPDSKDSPKDREVAEGGLPR
Turning to B3, the binding result with Spindlin1 (aa: 50–262) [3] is listed as “binds”.

For the molecule ART[Lys(Me3)]QTA[Arg(Me2a)]KSTG [H3K4me3R8me2a peptide], the “fold by which the affinity for H3K4me3K9me3 is higher than for this peptide” value in the assay with Spindlin1 (aa: 50–262) [4] was around 4 fold.

B4: C11orf84 (aa: 253–295) (domain or fragment, human, UniProt Q9BUA3 253-295, looked up)
chain: TETFAAPAEVRHFTDGSFPAGFVLQLFSHTQLRGPDSKDSPKD
notes: T255-Q283 defined in the electron density; The cloning of this fragment is not described; It is named only as part of the binary complex used for crystallisation; also called C11orf84 fragment; C11orf84 segment
For B4, the binding result with Spindlin1 (aa: 50–262) [2] is “binds”.

B5: H3K4me3R8me2a peptide, H3 (1-12) (peptide)
peptide: ARTK(Me3)QTAR(asymmetric Me2)KSTG
notes: histone H3 N-terminal tail, residues 1-12
Regarding B5, in the assay with Spindlin1 (aa: 50-262), the Kd amounted to 170 nM and the “stoichiometry N” value amounted to 1.02.
